The results in this text go back to patent publication US9266964.

B1: M161-C11 (Fab, V domains shown)
VH: EVQLLESGGGLVQPGGSLRLSCAASGFTFSDYAMKWVRQAPGKGLEWVSSISSSGGVTQYADSVKGRFTISRDNSKNTLYLQMNSLRAEDTAVYYCAREEDYSSSWYSRRFDYYYGMDVWGQGTTVTVSS
VL: QSALTQPPSVSVSPGQTASITCSGDKLGDKYVSWYQQRPGQSPVLVIYQDTKRPSGIPERFSGSNSGNTATLTISGTQAVDEADYYCQAWDSSTYVFGGGTKVTVL
notes: Printed HC runs from VH into the start of CH1
B2: M152-A12 (Fab, V domains shown)
VH: EVQLLESGGGLVQPGGSLRLSCAASGFTFSPYFMGWVRQAPGKGLEWVSGIGPSGGSTTYADSVKGRFTISRDNSKNTLYLQMNSLRAEDTAVYYCAREGPPYSSGWYRGLRQYHFDYWGQGTLVTVSS
VL: DIQMTQSPSSLSASVGDRVTITCRASQSISSYLSWYQQRPGKAPNLLIYAASSLQSGVPSRFSGSGSGTDFTLTISSLQPEDFATYYCQQSISIPRTFGQGTKVEVK
notes: as for B1
B3: M162-A04 (Fab, V domains shown)
VH: EVQLLESGGGLVQPGGSLRLSCAASGFTFSHYIMMWVRQAPGKGLEWVSGIYSSGGITVYADSVKGRFTISRDNSKNTLYLQMNSLRAEDTAVYYCAYRRTGIPRRDAFDIWGQGTMVTVSS
VL: DIQMTQSPSTLSASVGDRVTITCRASQSISSWLAWYQQKPGKAPNLLIYKASTLESGVPSRFSGSGSGTEFTLTISSLQPDDFATYYCQQYNTYWTFGQGTKVEIK
notes: Non-germlined Fab discovered using phage display; Printed HC runs from VH into the start of CH1; also called M162-A4; 559A-M162-A4
B4: M160-G12 (Fab, V domains shown)
VH: EVQLLESGGGLVQPGGSLRLSCAASGFTFSHYLMTWVRQAPGKGLEWVSYISPSGGHTIYADSVKGRFTISRDNSKNTLYLQMNSLRAEDTAVYYCARVARGIAARSRTSYFDYWGQGTLVTVSS
VL: DIQMTQSPSFLSASVGDRVTITCRASQGISSYLAWYQQKPGKAPKLLIYAASTLQSGVPSRFSGSGSGTEFTLTISSLQPEDFATYYCQQLNSYPLTFGGGTKVEIK
notes: Printed HC runs from VH into the start of CH1; also called R84-D02 (as IgG)
B5: M208-F10 (Fab, V domains shown)
VH: B4 VH with Y114Q
VL: DIQMTQSPGTLSLSPGERATLSCRTSQFVNSNYLAWYQQTPGQAPRLLIYGASSRATGIPDRFSGTGYGTDFTLTISRLEPEDYGTYYCQQSSRTPWTFGQGTRVEIK
notes: Tested as Fab; printed HC runs into CH1; amber q written Q
B6: M210-B02 (Fab, V domains shown)
VH: B4 VH with R98S, D113N, Y114Q
VL: B5 VL
notes: as for B5
B7: M209-C11 (Fab, V domains shown)
VH: B4 VH with R98M, A100G, R101Q, A104R, A105G, D113A, Y114Q
VL: B5 VL
notes: as for B5
B8: M206-B10 (Fab, V domains shown)
VH: B4 VH with H31Q, T35A, Y50S, S52Y, H57W, I59K
VL: B5 VL
notes: as for B5
B9: M208-C06 (Fab, V domains shown)
VH: B4 VH with Y111F, F112I
VL: B5 VL
notes: Tested as Fab; printed HC runs into CH1
B10: M206-F01 (Fab, V domains shown)
VH: B4 VH with H31G, L33M, T35V, Y50R, H57P
VL: B5 VL
notes: as for B9
B11: M210-G04 (Fab, V domains shown)
VH: B4 VH with R101T, A104V, S110R, Y114Q
VL: B5 VL
notes: as for B5
B12: M209-E02 (Fab, V domains shown)
VH: B4 VH with S110I, Y111L, F112L, Y114Q
VL: B5 VL
notes: as for B5
B13: M208-H02 (Fab, V domains shown)
VH: B4 VH with A105S, S110R, F112C
VL: B5 VL
notes: as for B9
B14: M210-C12 (Fab, V domains shown)
VH: B4 VH with R101Q, Y111S, F112V, Y114Q
VL: B5 VL
notes: as for B5
B15: M208-G03 (Fab, V domains shown)
VH: B4 VH with F112L
VL: B5 VL
notes: as for B9
B16: M208-F04 (Fab, V domains shown)
VH: B4 VH with Y111F
VL: B5 VL
notes: as for B9
B17: M210-G10 (Fab, V domains shown)
VH: B4 VH with F112L, Y114F
VL: B5 VL
notes: as for B9
B18: M206-H08 (Fab, V domains shown)
VH: B4 VH with H31D, L33M, T35A, Y50S, S52V, I59H
VL: B5 VL
notes: as for B9
B19: M209-B09 (Fab, V domains shown)
VH: B4 VH with R101Q, A104V, F112L, D113H, Y114Q
VL: B5 VL
notes: as for B5
B20: M205-D04 (Fab, V domains shown)
VH: B4 VH with H31T, L33K, T35Q, Y50S, H57P, I59N
VL: B5 VL
notes: as for B5
B21: M209-F04 (Fab, V domains shown)
VH: B4 VH with F112L, Y114Q, G116S
VL: B5 VL
notes: Tested as Fab; printed HC runs into CH1; amber q written Q; WSQGTL as printed
B22: M210-H06 (Fab, V domains shown)
VH: B4 VH with S110R
VL: B5 VL
notes: as for B9
B23: M208-E10 (Fab, V domains shown)
VH: B4 VH with R101Q, A104S
VL: B5 VL
notes: as for B9

Where a chain is given by its changes, count along the chain named.

The first assay addresses T1, human plasma kallikrein (human, UniProt P03952 20-390; P03952 391-638).
T1 construct: also called pKal; human pKal
The experiment in a line: ELISA, biotinylated plasma kallikrein coated on microtiter plate, signal divided by streptavidin background. From the text: Abbreviations used: "T/B" is the ELISA signal obtained using of the "target" (biotinylated plasma kallikrein) divided by the ELISA signal of the "background" (streptavidin); both of which were coated on microtiter plates. "nd" is not determined. The symbol "q" refers to the amber suppressible stop codon (TAG), which is translated as glutamine (Q) in strains of *E. coli* such as the TG1 cells that were used to express the Fab fragments.
(ELISA stands for enzyme-linked immunosorbent assay.)
T1 sequence (P03952 20-390, chain 1 of 2): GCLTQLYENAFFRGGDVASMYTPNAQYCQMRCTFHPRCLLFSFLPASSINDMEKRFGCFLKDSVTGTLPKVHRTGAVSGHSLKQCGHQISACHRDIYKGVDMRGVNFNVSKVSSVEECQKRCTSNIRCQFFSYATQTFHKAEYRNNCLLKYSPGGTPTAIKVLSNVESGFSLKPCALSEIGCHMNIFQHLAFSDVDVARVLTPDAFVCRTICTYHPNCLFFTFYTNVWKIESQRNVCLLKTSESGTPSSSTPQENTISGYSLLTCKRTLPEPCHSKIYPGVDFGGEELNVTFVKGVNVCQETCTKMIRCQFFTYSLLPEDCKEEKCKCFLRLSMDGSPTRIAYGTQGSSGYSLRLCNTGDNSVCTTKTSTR
T1 sequence (P03952 391-638, chain 2 of 2): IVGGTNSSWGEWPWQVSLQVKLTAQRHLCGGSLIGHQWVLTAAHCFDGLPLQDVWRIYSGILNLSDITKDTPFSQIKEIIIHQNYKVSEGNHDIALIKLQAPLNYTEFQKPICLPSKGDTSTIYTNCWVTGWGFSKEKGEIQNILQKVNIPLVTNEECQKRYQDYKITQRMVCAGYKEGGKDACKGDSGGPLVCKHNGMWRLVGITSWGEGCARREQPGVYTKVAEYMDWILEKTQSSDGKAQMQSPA
B1: the “Human pKal ELISA (T/B)” value is 41.8 ratio of ELISA signal on target to background (streptavidin).
Consider B2, for which the “Human pKal ELISA (T/B)” value was 19 ratio of ELISA signal on target to background (streptavidin).
On the same count and under the same terms, in the case of B3 it was 11.4 ratio of ELISA signal on target to background (streptavidin); in that of B4, 38.3 ratio of ELISA signal on target to background (streptavidin).

The target in the next assay is T1, human plasma kallikrein. The experiment in a line: apparent inhibition constant (Ki,app) against human pKal, enzyme inhibition.
Take B1: the Ki was 0.3 nM.
Still for that read-out and setting: the result for B2 reads less than 100 nM; that for B3, 4.8 nM.
With B4, the Ki worked out at 17 nM.

Another assay has as its target T2, human plasma kallikrein (human, UniProt P03952 20-390; P03952 391-638).
T2 construct: two disulfide-linked chains; also called pKal; human pKal
The experiment in a line: Ki,app, inhibition of human pKal enzyme activity.
T2 sequence (P03952 20-390, chain 1 of 2): as the sequence (P03952 20-390, chain 1 of 2) above
T2 sequence (P03952 391-638, chain 2 of 2): as the sequence (P03952 391-638, chain 2 of 2) above
B5: the Ki amounted to 0.2 nM.
Same read-out and setting: the result for B6 reads 0.2 nM; that for B7, 0.14 nM.
For the molecule B8, the Ki worked out at 0.3 nM.
The molecule B9 gave a Ki of 0.4 nM.
B10 registered a Ki of 0.2 nM.
Regarding B11, the Ki came to 0.3 nM.
Molecule B12 displayed a Ki of 0.3 nM.
Same read-out and setting: the result for B13 reads 0.2 nM.
The same measure, in the same setting: the result for B14 reads 0.16 nM.
Still for that read-out and setting: in the case of B15 it was 0.3 nM; in that of B16, 0.2 nM; in that of B17, 0.4 nM.
B18 had a Ki of 0.17 nM.
On the same count and under the same terms, the result for B19 reads 0.2 nM.
Same read-out and setting: the result for B20 reads 0.4 nM; that for B21, 0.09 nM.
In turn, B22 gave a Ki of 0.2 nM.
Molecule B23 had a Ki of 0.09 nM.

The target of a further assay is T2, human plasma kallikrein. The experiment in a line: cell-based or functional assay.
The % inhibition is how much of the control response was suppressed. A lower % inhibition goes with a response near the control. As for B5, the “% inhibition at 10 nM” value turned out to be 92.5%.
Same read-out and setting: the result for B6 reads 90.9%.
The same measure, in the same setting: the result for B7 reads 96.2%; that for B8, 94.7%; that for B9, 91.7%.
The same measure, in the same setting: the result for B10 reads 92.6%; that for B11, 94.2%; that for B12, 92.4%.
Regarding B13, the “% inhibition at 10 nM” value stood at 94.4%.
For B14, the “% inhibition at 10 nM” value was determined as 95.6%.
The same measure, in the same setting: the result for B15 reads 93.4%; that for B16, 95.4%.
Still for that read-out and setting: the result for B17 reads 91.2%.
For B18, the “% inhibition at 10 nM” value is 96%.
For B19, the “% inhibition at 10 nM” value stood at 93.5%.
B20: the “% inhibition at 10 nM” value is 91.5%.
Same read-out and setting: in the case of B21 it was 97.6%; in that of B22, 93.8%; in that of B23, 93.7%.
